Where no end group is shown, it is not given here.
T1: LigIV DBD (Met1-Ile240) (UniProt P49917 1-240)
T1 construct: source: E. coli Rosetta2 (DE3), purified (Ni-NTA, TEV, SEC); not shown: His tag, N-terminal, cleaved
T1 sequence (looked up): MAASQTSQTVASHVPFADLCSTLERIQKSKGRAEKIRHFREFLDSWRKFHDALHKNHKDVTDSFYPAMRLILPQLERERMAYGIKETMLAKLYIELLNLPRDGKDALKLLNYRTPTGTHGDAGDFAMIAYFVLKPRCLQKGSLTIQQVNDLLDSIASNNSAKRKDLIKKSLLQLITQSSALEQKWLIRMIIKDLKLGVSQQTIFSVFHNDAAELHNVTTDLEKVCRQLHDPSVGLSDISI

B1: FAM-labeled Ku70 1-11 peptide (peptide)
peptide: {FAM}-MSGWESYYKTE
notes: Ku70, residues 1-11; The results call the modelled stretch 'Ku70 CTR', but the peptide is residues 1-11; also called Ku70 peptide; source: synthetic peptide (GenScript)
B2: FAM-labeled Artemis 486-496 peptide (peptide)
peptide: {FAM}-VPQWEVFFKRN
notes: Artemis, residues 486-496; also called Artemis peptide; source: synthetic peptide (GenScript)

Molecular target: T1, LigIV DBD (Met1-Ile240)
Test: fluorescence polarisation; 25 nM FAM-labeled peptide constant, LigIV DBD 5 nM–200 μM; 15 mM Tris pH 7.5, 65 mM NaCl, 0.7 mM βME; 20 min
Details: both partners purified

Binder | Kd
B1 | 29 to 30 µM
B2 | 1.5 to 4 µM

— publication PMC13649775 (Nature Communications, 2026)
